What was measured:
[1] = biological target: B-cell maturation antigen (BCMA) (human) (UniProt Q02223); assay: cell-based or functional assay
[2] = biological target: BCMA expressed on MM1S cells (human) (UniProt Q02223); assay: cell-based or functional assay
BCMA expressed on MM1S cells (human), sequence (Q02223 whole entry): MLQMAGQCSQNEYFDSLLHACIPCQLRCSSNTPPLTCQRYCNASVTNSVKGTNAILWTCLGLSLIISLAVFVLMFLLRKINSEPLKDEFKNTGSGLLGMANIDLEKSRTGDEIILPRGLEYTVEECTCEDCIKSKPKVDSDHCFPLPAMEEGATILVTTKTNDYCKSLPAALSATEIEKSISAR

B-cell maturation antigen (BCMA) (human), sequence (Q02223 whole entry): as above

Binder | % CD107a+ (in CD8+) (degranulation, MM1S cells, Donor 3) [1] | MFI CD107a+ (degranulation, MM1S cells, Donor 3) [1] | % CD107a+ (in CD8+) (degranulation, MM1S cells, Donor 2) [1] | MFI CD107a+ (degranulation, MM1S cells, Donor 2) [1] | further results
COM22-V1 (protein) EVQLLESGGGLVQPGGSLRLSCAASGFTFSSYAMNWVRQAPGKGLEWVSAISDSGGSRWYADSVKGRFTISRDNSKNTLYLQMNSLRAEDTAVYYCTRYWPMDIWGQGTLVTVSSGGGGSGGGGSGGGGSEIVLTQSPGTLSLSPGERATLSCRASVRVSSTYLAWYQQKPGQAPRLLMYDASIRATGIPDRFSGSGSGTDFTLTISRLEPEDFAVYYCQQYMKWPLTFGQGTKVEIKGLAVSTISSFFPPGYQIYIWAPLAGTCGVLLLSLVITLYCKRGRKKLLYIFKQPFMRPVQTTQEEDGCSCRFPEEEEGGCELRVKFSRSADAPAYQQGQNQLYNELNLGRREEYDVLDKRRGRDPEMGGKPRRKNPQEGLYNELQKDKMAEAYSEIGMKGERRRGKGHDGLYQGLSTATKDTYDALHMQALPPR | 76.1% | 2220 MFI |  |  | 
P5A-V1 (protein) EVQLLESGGGLVQPGGSLRLSCAASGFTFSSYAMNWVRQAPGKGLEWVSAISDSGGSTYYADSVKGRFTISRDNSKNTLYLQMNSLRAEDTAVYYCARYWPMDIWGQGTLVTVSSGGGGSGGGGSGGGGSEIVLTQSPGTLSLSPGERATLSCRASQSVSSSYLAWYQQKPGQAPRLLMYDASIRATGIPDRFSGSGSGTDFTLTISRLEPEDFAVYYCQQYGSWPLTFGQGTKVEIKGLAVSTISSFFPPGYQIYIWAPLAGTCGVLLLSLVITLYCKRGRKKLLYIFKQPFMRPVQTTQEEDGCSCRFPEEEEGGCELRVKFSRSADAPAYQQGQNQLYNELNLGRREEYDVLDKRRGRDPEMGGKPRRKNPQEGLYNELQKDKMAEAYSEIGMKGERRRGKGHDGLYQGLSTATKDTYDALHMQALPPR |  |  | 77.6% | 2670 MFI | 
P5AC16-V1 (protein) EVQLLESGGGLVQPGGSLRLSCAASGFTFSSYAMNWVRQAPGKGLEWVSAISDFGGSTYYADSVKGRFTISRDNSKNTLYLQMNSLRAEDTAVYYCARYWPMDIWGQGTLVTVSSGGGGSGGGGSGGGGSEIVLTQSPGTLSLSPGERATLSCRASQSVSDLYLAWYQQKPGQAPRLLMYDASIRATGIPDRFSGSGSGTDFTLTISRLEPEDFAVYYCQQYQTWPLTFGQGTKVEIKGLAVSTISSFFPPGYQIYIWAPLAGTCGVLLLSLVITLYCKRGRKKLLYIFKQPFMRPVQTTQEEDGCSCRFPEEEEGGCELRVKFSRSADAPAYQQGQNQLYNELNLGRREEYDVLDKRRGRDPEMGGKPRRKNPQEGLYNELQKDKMAEAYSEIGMKGERRRGKGHDGLYQGLSTATKDTYDALHMQALPPR |  |  | 61.6% | 1860 MFI | 
P5AC1-V1 (protein) EVQLLESGGGLVQPGGSLRLSCAASGFTFSSYAMNWVRQAPGKGLEWVSAILSSGGSTYYADSVKGRFTISRDNSKNTLYLQMNSLRAEDTAVYYCARYWPMDIWGQGTLVTVSSGGGGSGGGGSGGGGSEIVLTQSPGTLSLSPGERATLSCRGGQSVSSSYLAWYQQKPGQAPRLLMYDASIRATGIPDRFSGSGSGTDFTLTISRLEPEDFAVYYCQQYQSWPLTFGQGTKVEIKGLAVSTISSFFPPGYQIYIWAPLAGTCGVLLLSLVITLYCKRGRKKLLYIFKQPFMRPVQTTQEEDGCSCRFPEEEEGGCELRVKFSRSADAPAYQQGQNQLYNELNLGRREEYDVLDKRRGRDPEMGGKPRRKNPQEGLYNELQKDKMAEAYSEIGMKGERRRGKGHDGLYQGLSTATKDTYDALHMQALPPR |  |  | 68.6% | 2190 MFI | 
P6AP-V1 (protein) EVQLLESGGGLVQPGGSLRLSCAASGFTFGSYAMTWVRQAPGKGLEWVSAISGSGGNTFYADSVKGRFTISRDNSKNTLYLQMNSLRAEDTAVYYCARVSPIAAPMDYWGQGTLVTVSSGGGGSGGGGSGGGGSEIVLTQSPGTLSLSPGERATLSCRASQLGSFYLAWYQQKPGQAPRLLIYGASSRATGIPDRFSGSGSGTDFTLTISRLEPEDFAVYYCQHYNYPPSFTFGQGTKVEIKGLAVSTISSFFPPGYQIYIWAPLAGTCGVLLLSLVITLYCKRGRKKLLYIFKQPFMRPVQTTQEEDGCSCRFPEEEEGGCELRVKFSRSADAPAYQQGQNQLYNELNLGRREEYDVLDKRRGRDPEMGGKPRRKNPQEGLYNELQKDKMAEAYSEIGMKGERRRGKGHDGLYQGLSTATKDTYDALHMQALPPR |  |  |  |  | % CD107a+ (in CD8+) (degranulation, Donor 1, co-culture with MM1S) [2]: 46.4%; MFI CD107a+ (degranulation, CD8+ T cells, Donor 1, co-culture with MM1S) [2]: 1850 MFI

Second part, led by results:

% CD107a+ (in CD8+) (degranulation, MM1S cells, Donor 3) [1] | MFI CD107a+ (degranulation, MM1S cells, Donor 3) [1] | % CD107a+ (in CD8+) (degranulation, MM1S cells, Donor 2) [1] | MFI CD107a+ (degranulation, MM1S cells, Donor 2) [1] | Binder | further results
68.2% | 1960 MFI |  |  | PC1C12-V1 (protein) EVQLLESGGGLVQPGGSLRLSCAASGFTFSSYPMSWVRQAPGKGLEWVSAIGGSGGWSYYADSVKGRFTISRDNSKNTLYLQMNSLRAEDTAVYYCARYWPMDSWGQGTLVTVSSGGGGSGGGGSGGGGSEIVLTQSPGTLSLSPGERATLSCWLSQSVSSTYLAWYQQKPGQAPRLLIYDASSRAPGIPDRFSGSGSGTDFTLTISRLEPEDFAVYYCQQYSEWPLTFGQGTKVEIKGLAVSTISSFFPPGYQIYIWAPLAGTCGVLLLSLVITLYCKRGRKKLLYIFKQPFMRPVQTTQEEDGCSCRFPEEEEGGCELRVKFSRSADAPAYQQGQNQLYNELNLGRREEYDVLDKRRGRDPEMGGKPRRKNPQEGLYNELQKDKMAEAYSEIGMKGERRRGKGHDGLYQGLSTATKDTYDALHMQALPPR | 
75.6% | 2180 MFI |  |  | PC1-V1 (protein) EVQLLESGGGLVQPGGSLRLSCAASGFTFSSYPMSWVRQAPGKGLEWVSAIGGSGGSTYYADSVKGRFTISRDNSKNTLYLQMNSLRAEDTAVYYCARYWPMDSWGQGTLVTVSSGGGGSGGGGSGGGGSEIVLTQSPGTLSLSPGERATLSCRASQSVSSTYLAWYQQKPGQAPRLLIYDASSRAPGIPDRFSGSGSGTDFTLTISRLEPEDFAVYYCQQYSTSPLTFGQGTKVEIKGLAVSTISSFFPPGYQIYIWAPLAGTCGVLLLSLVITLYCKRGRKKLLYIFKQPFMRPVQTTQEEDGCSCRFPEEEEGGCELRVKFSRSADAPAYQQGQNQLYNELNLGRREEYDVLDKRRGRDPEMGGKPRRKNPQEGLYNELQKDKMAEAYSEIGMKGERRRGKGHDGLYQGLSTATKDTYDALHMQALPPR | 

Source: patent US20160297884A1
